Source: the DeepSol protein solubility set

Test: soluble on expression in E. coli; label from the status in PepcDB or PDB records

Row | Sequence | soluble on expression in E. coli
1 | MGSDKIHHHHHHMNVLEQFYQLGWTLDSAGGASGEAYMAEQDGQKLFLKRNSNPFIAALSAEGIVPKLVWTKRIETGEVVTAQHWKNGRELNEDEMNQTRVAELLHKIHGSRPLLTMLKRMEMEPITPDIMLNKINASLSREVLTHHVVRRALTYLEDHIPNLDARFFTVVHGDVNHNNWLLSDRDELYLVDWEGAMIADPAIDIGMLLYNYVPQNKWSQWFKTYGVEESVNLNKRMKWYTVIQAIGLIQWYEEQKRYRDMNTWLKFLNEVMNSNLFI | not soluble
2 | MGSDKIHHHHHHMNYKLISIDLAKTVFQVAAFNPDNTIAFNRKINRPALLDMLRQCEPTLVVMEACYSANYWGRTIEKLGHTVKLIPARMVKAMLVGNKNDANDAVAIGETAGRPKVSLLRPKTVEQQDIQSLLRIRERLVENRTANCNQLRGFLAEYGLIVAKTRRQLMLAIPLILEDADNELSTVARGFIQRLYEFQLYLNEQIDQVAQDILALAQAMPQYPLLLTIPGVGPIVASTLLASINEVNDFKNGRQLAAWLGLTPSQYSSGTTNRLGKITKRGNQTLRRLLIHGARTVVNWCDKKDDSLSLWLQRLKQRQHVCKVTVALANKMARMVFVVMSRGQAFDMNKACKLAT | not soluble
3 | MGSDKIHHHHHHMNYKPEIAIIESNTLTCLGLKSILEEIIPMATIRTFHSFSELMDDTPDMYAHYFISAQIYVEHNAFFLPRKRKTIVLASDSPQFQLSGVPVLNIYEPEEKLVKSLLKLHQHAHHNGYPVKDMPPIAMPEVHQEILSAREIEVLVLITKGLINKEIADKLNISLTTVITHRKNITEKLGIKSVSGLTIYAVMNGYIEADRI | not soluble
4 | MGSDKIHHHHHHMNYPTTRLNWPRAWRVIPSRFPAVGLFERVASPDDFDALYALEAMTNDRLRDEVGDISLVPPEERLFGPGSTCIMAAFTHLNPQGSRFSDGSYGVFYCARKRDTAIAETRYHSARFMQATREPPMRLQMRLYSVQARGEAADLRVASKSDPRIVAPDDYSYPQAIGRSLRAAGALGIVYPSVRHSGGGCLAALRTGIVKNCLHAAYLEYNWNGEGIDAVFEVNRVL | not soluble
5 | MGSDKIHHHHHHMNYTFELKELQATHIVYLHHQGDISLIPSSIRKLMQWAGPKGLINGPANKLISVYQHEGKVLSVDIGLTVPQEVEGESEISKGLLSGGLYAIGHFEIGTDEIPAAWSLMYTLTSKHQCKPCAGKSFEIYQSIPLDQHPQDKCMIDLCIPVQMIDLKLIEEKAISILTECDTAMLASVTEEGYPRPVPMGKIKADGISQIWFSTGTFSDKTIQFQLNPKAGVCFMKGGDSIVLTGKVEIVSDMEIKKALWSDWMFAHFPGGVIDPSYCILKFTSEEATYWIDNEFVKASI | not soluble
6 | MGSDKIHHHHHHMNYTQNQKISQITPSTLVIGIDVAKDKHVARAQDDRGLEFGKRLIFENRIHGFELLLEWALRHAKENSKDHIIFGVEPTGHYWLNLAYYLTAKDFDFVLVNPMHVKKSKELDDNSPTKNDTKDAKVISQLIKDGRYSVPNLLDGIYAELREGVKLRDQLIQQLLITEGRIQNIIDRYFPEFFDVFGDWEGKAAFCTLKLFPFPSQIVKMTPEEVLRQWKPFVQRGVGIKRATKLVETAHKSIGITIGSHFAQREMSSLLDQWELFKKQLEELDQELEGVVRTIPGANEMIDITGLGVATVTTVLSEIGDLKKYKHPQQLVNLAGLSLRENSSGKFKGQTTITKRGRSKLRRALYLAIRPLVAHNPTFKALHHYYTKRPDKPLKKQQSLIALCCKLLRVLFVIGQKQCPFDGSKLLQGIPQEKTLQAA | not soluble
7 | MGSDKIHHHHHHMPARPNHLSNNIVFRDGVQVMRMDLHVHTEVSHDCQTRLRDIPAWLLRTNTRVIAITDHDEQRGGPELKRLVADLGLADRLSIIPGEEITTSEGELIGLFLEERIPPGLTPEATVQEIKAQGGLVLLQHGFDPLKRYRLRPEATQRIADQIDMVETFNSRLSRHHWNRVAAEWARARHLPVCAGSDAHTLRDIGEAWVETPFRLIHTPEQLLQALDEGVVGGRWTHPVYAYGLKQWRNLNGRFQRKD | not soluble
8 | MGSDKIHHHHHHMPAYKVLQKGKTGDLLNVKHLYIKDIQSGEKVQDSFLVTEKNVAYSQKGAPYLNLRLKDKTGQVDGKIWDNALEWDKRFRKGDVVQVNARAVSFRNSLQLSILSLNTLDDSEVILNDYVPTTRMNVEVMFSELQSIIDRIDTPPLKKLLKSFFDDREIAERFKRAPAAKGFHHIYLGGLLEHTHSVTRLLSQIASHYPGVNRDLLLTGGILHDIGKINEFSYDRLVEYSDEGRLIGHIIIGVEMIDEKITAIPDFPAYLAMELRHLILSHHGILEYGSPKRPKTLEALMVHYVDDLDAKVNAFQEYLNDFRDEDTGWTPFHRFLERYLYRGRVQEITAEEPISPKEF | not soluble
